# Substitutions are numbered along the chain they refer to. In names and notes the source's numbering stands.
# B1: KCTD5 (full-length, purified; SEC and cryo-EM samples) (natural protein)
# chain: MAENHCELLSPARGGIGAGLGGGLCRRCSAGLGALAQRPGSVSKWVRLNVGGTYFLTTRQTLCRDPKSFLYRLCQADPDLDSDKDETGAYLIDRDPTYFGPVLNYLRHGKLVINKDLAEEGVLEEAEFYNITSLIKLVKDKIRERDSKTSQVPVKHVYRVLQCQEEELTQMVSTMSDGWKFEQLVSIGSSYNYGNEDQAEFLCVVSKELHNTPYGTASEPSEKAKILQERGSRM
# B2: KCTD5 L161R (natural protein)
# chain: B1 chain with L161R
# B3: Thioredoxin-fusion KCTD5 (natural protein)
# chain: B1 chain
# Assays:
# cryo-EM structure = target: the molecule itself; test: cryo-EM structure
# [1] = target: CUL3 N-terminal domain (CUL3^NTD, residues 1-381) (UniProt Q13618 1-381); test: BLI
# CUL3 N-terminal domain (CUL3^NTD, residues 1-381), sequence (Q13618 1-381): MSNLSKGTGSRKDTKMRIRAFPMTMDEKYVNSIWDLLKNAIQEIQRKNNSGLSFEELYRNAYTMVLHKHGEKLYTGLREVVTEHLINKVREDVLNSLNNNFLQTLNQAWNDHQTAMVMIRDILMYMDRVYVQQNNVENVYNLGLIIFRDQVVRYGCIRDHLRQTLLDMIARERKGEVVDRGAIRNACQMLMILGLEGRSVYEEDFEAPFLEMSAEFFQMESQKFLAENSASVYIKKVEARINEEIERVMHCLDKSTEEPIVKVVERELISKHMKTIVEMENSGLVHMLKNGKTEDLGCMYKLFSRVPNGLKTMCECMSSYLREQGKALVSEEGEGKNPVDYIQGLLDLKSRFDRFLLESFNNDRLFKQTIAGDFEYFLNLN
binder,measurement,setting,value
B1,stoichiometry N,cryo-EM structure,5
B2,binding result,[1],binds
B3,Kd,[1],30 nM
